In patent publication US20210155689A1 (SHANGHAI PHARMAEXPLORER, published 2021):

T1: monkey LAG-3 on cells (HEK293-cLAG-3 stable cell line) (monkey, UniProt P18627 24-525 (human entry))
T1 construct: Full-length monkey (Chinese monkey) LAG-3 gene expressed on HEK293 cells
T1 chain: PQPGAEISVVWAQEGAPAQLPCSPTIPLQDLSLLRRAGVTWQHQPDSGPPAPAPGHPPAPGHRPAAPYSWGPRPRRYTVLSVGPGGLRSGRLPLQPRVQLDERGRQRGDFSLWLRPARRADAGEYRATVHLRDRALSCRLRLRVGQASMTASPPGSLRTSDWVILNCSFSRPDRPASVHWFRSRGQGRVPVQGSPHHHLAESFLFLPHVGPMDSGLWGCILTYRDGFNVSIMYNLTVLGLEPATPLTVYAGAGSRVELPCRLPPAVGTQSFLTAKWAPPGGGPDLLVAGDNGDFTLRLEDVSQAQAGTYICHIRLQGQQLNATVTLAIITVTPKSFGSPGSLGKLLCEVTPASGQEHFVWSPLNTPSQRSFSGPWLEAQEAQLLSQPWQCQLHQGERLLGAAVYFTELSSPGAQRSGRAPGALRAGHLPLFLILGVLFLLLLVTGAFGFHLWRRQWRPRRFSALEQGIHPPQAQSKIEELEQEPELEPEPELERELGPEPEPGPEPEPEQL

T2: human LAG-3 protein with hFc tag (hLAG-3-hFc protein) (human, UniProt P18627 23-450)
T2 construct: also called immunogen 1; LAG-3 extracellular domain protein; not shown: human IgG Fc fragment (hFc) of the pCpC vector
T2 sequence: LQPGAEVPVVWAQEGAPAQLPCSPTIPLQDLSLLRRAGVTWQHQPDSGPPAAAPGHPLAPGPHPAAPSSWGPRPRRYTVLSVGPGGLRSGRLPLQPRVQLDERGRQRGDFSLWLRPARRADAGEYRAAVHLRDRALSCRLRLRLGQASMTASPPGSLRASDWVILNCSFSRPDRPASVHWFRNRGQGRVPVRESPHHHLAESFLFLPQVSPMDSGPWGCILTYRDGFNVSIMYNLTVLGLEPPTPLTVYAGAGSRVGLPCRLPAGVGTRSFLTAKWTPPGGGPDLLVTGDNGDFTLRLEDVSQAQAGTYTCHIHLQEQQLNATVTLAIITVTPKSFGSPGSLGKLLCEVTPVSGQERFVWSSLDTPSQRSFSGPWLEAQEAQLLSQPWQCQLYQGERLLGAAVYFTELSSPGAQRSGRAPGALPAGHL

T3: hFc tagged monkey LAG-3 protein (cLAG-3-hFc protein) (monkey; human)
T3 construct: Made in HEK293 cells; also called monkey LAG-3 extracellular domain protein; not shown: human IgG Fc fragment (hFc) of the pCpC vector
T3 chain: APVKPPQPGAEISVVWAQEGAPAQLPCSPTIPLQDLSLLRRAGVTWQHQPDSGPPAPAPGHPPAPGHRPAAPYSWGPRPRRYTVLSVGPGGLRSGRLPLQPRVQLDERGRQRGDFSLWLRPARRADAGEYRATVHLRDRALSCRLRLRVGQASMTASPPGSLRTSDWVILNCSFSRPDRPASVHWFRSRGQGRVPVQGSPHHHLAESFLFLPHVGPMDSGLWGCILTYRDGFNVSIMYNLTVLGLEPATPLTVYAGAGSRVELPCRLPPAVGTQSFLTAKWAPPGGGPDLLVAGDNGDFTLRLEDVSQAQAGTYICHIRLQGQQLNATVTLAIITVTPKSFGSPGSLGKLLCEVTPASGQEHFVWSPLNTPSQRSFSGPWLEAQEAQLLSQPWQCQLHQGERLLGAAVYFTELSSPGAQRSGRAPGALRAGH


How the values were obtained:
[1] = molecular target: T1, monkey LAG-3 on cells (HEK293-cLAG-3 …); assay: FACS, HEK293-cLAG-3, antibody 1.600 nM
From the text: The pIRES plasmid with the monkey-derived full-length gene was transfected into the HEK293 cell line to construct a HEK293 stable cell line containing monkey LAG-3 (herein referred to as HEK293-cLAG-3 stable cell line). The HEK293-hLAG-3 stable cell line and HEK293-cLAG-3 stable cell line were expanded in a T-75 cell culture flask to a 90% confluence. The medium was aspirated, and the cells were washed with HBSS (Hanks' Balanced Salt Solution) 1-2 times, then treated with a enzyme-free cell dissociation fluid (Versene solution: Life technology) and the cells were collected. The cells were washed with HBSS buffer for 1-2 times. After counted, the cells were diluted with HBSS to 1-2×10⁶ cells per ml, added with 1% goat serum blocking solution, incubated on ice for 20-30 minutes, and then washed with HBSS for 2 times by centrifugation. The collected cells were suspended in the FACS buffer (HBSS+1% BSA) to 2×10⁶ cells/ml, added as 100 microliters per well to a 96-well FACS reaction plate, added with 100 microliters per well of the antibody sample to be tested, incubated on ice for 1-2 hours. The plate was washed twice with the FACS buffer by centrifugation, added with 100 microliters of fluorescent (Alexa 488)-labeled secondary antibodies per well, and incubated on ice for 0.5-1.0 hours. The plate was washed 2-3 times with FACS buffer by centrifugation, added with 100 μl fixative solution (4% Paraformaldehyde) per well to suspend the cells. 5-10 minutes later, it was washed 1-2 times with FACS buffer by centrifugation. The cells were suspended with 100 microliters of FACS buffer, FACS (FACSCalibur, BD) was used for detection and the results were analyzed.

[2] = molecular target: T2, human LAG-3 protein with hFc tag …; assay: ELISA, hLAG-3-hFc coated; 0.0007 nM
Procedure: (§1) The plate was sealed with plastic film and incubated overnight at 4° C. The plate was washed 2 times with the plate washing solution (PBS+0.01% Tween20) on the next day, and added with the blocking solution (PBS+0.01% Tween20+1% BSA) and blocked at room temperature for 1-2 hours. The blocking solution was poured out, and the plate was added with 50-100 μl of the antibody sample to be tested to each well, incubated at 37° C. for 1-2 hours, and washed 2-3 times with a plate washing solution (PBS+0.01% Tween20). HRP (horseradish peroxidase) labeled secondary antibody was added, and the plate was incubated at 37° C. for 1-2 hours, and washed 2-3 times with a plate washing solution (PBS+0.01% Tween20). 100 μl of TMB substrate was added to each well. After incubated at room temperature for 15-30 minutes, the plate was added with 100 μl of stop solution (1.0N HCl) to each well.

[3] = molecular target: T3, hFc tagged monkey LAG-3 protein …; assay: ELISA, cLAG-3-hFc coated; 66.6670 nM
Procedure: as §1

| Binder | Mean fluorescence intensity [1] | OD450 [2] | OD450 [3] |
| --- | --- | --- | --- |
| 105F1E10 mouse-human chimeric antibody (antibody, V domains shown, also called mAb009-105F1E10) VH: EVQLQQSGPELVKPGASVKMSCRASGYTFTDFKMHWMKQSHGKSLEWIGYIAPNNGGTAYNQKFRGKATLTVNESSNTAYMELRSLTSEDSAVYYCVDWDDVDYWGQGTTLTVSS VL: DIKMTQSPSSMYASLGERVTITCKASQDINSYLSWFQQKSGKSPKTLIYRANRLVDGVPSRFSGSGSGQDYSLTISSLEYEDMGIYYCLQYVEFPLTFGAGTKLELK | 14.7 |  |  |
| 405B8H3 mouse-human chimeric antibody (antibody, V domains shown, also called mAb103-405B8H3) VH: QVQLQQSGAELVRPGASVTLSCKASGYTFTDYEMHWVKQTPVHGLEWIGATDPETGNSAYNQKFKGKAIMTADKSSSTAYMELRSLTSEDSAVYYCISTGWNDWGQGTSLTVSS VL: DIKMTQSPSSMYASLGERVTITCKASQDINSYLSWFQQKPGKSPKTLIYRADRLLDGVPSRFSGSGSGQDYSLTISSLEYGDMGIYYCLQYDEFPYTFGGGTKLEIK | 29.4 |  |  |
| 105F1E10 (LAG-3 mouse-human chimeric antibody) (antibody, V domains shown) VH: EVQLQQSGPELVKPGASVKMSCRASGYTFTDFKMHWMKQSHGKSLEWIGYIAPNNGGTAYNQKFRGKATLTVNESSNTAYMELRSLTSEDSAVYYCVDWDDVDYWGQGTTLTVSS VL: DIKMTQSPSSMYASLGERVTITCKASQDINSYLSWFQQKSGKSPKTLIYRANRLVDGVPSRFSGSGSGQDYSLTISSLEYEDMGIYYCLQYVEFPLTFGAGTKLELK |  | 0.2 OD450 | 3.59 OD450 |
| 405B8H3 (LAG-3 mouse-human chimeric antibody) (antibody, V domains shown, also called mouse-human chimeric antibody 405B8H3) VH: QVQLQQSGAELVRPGASVTLSCKASGYTFTDYEMHWVKQTPVHGLEWIGATDPETGNSAYNQKFKGKAIMTADKSSSTAYMELRSLTSEDSAVYYCISTGWNDWGQGTSLTVSS VL: DIKMTQSPSSMYASLGERVTITCKASQDINSYLSWFQQKPGKSPKTLIYRADRLLDGVPSRFSGSGSGQDYSLTISSLEYGDMGIYYCLQYDEFPYTFGGGTKLEIK |  | 0.19 OD450 | 3.46 OD450 |
| 409D4E10 (LAG-3 mouse-human chimeric antibody) (antibody, V domains shown) VH: QVQLQQSGAELVRPGASVTLSCKASGNTFTDYEMHWVKQTPVHGLEWIGATDPETDNTAYNQKFKGKAILTTDKSSSTAYMELRSLTSEDSAVYYCITSGWNDWGQGTSLTVSS VL: DIKMTQSPSSMYASLGERVTITCKASQDINSYLSWFQQKPGKSPKTLIYRANRLLDGVPSRFSGSGSGQDYSLTISSLEYEDMGIYYCLQYNEFPYTFGGGTKLEIK |  | 0.16 OD450 | 3.77 OD450 |
| 409B11E12 (LAG-3 mouse-human chimeric antibody) (antibody, V domains shown) VH: QVQLQQSGAELVRPGASVTLSCKASGYTFTDYEMHWVKQTTVHGLEWIGATDPETSYSAYNQKFKGKAILTADKSSSTAYMELRSLTSEDSAVYYCIATGWNDWGQGTSLTVSS VL: DLKMTQSPSSMYASLGERVTITCKASQDINSYLSWFQQKPGKSPKTLIYRANRLLDGVPSRFSGSGSGQDYSLTISSLEYEDMGIYYCLQYDEFPYTFGGGTKLEIK |  | 0.2 OD450 | 3.44 OD450 |
| 409B11E12 mouse-human chimeric antibody (antibody, V domains shown, also called mAb104-409B11E12) VH: QVQLQQSGAELVRPGASVTLSCKASGYTFTDYEMHWVKQTTVHGLEWIGATDPETSYSAYNQKFKGKAILTADKSSSTAYMELRSLTSEDSAVYYCIATGWNDWGQGTSLTVSS VL: DLKMTQSPSSMYASLGERVTITCKASQDINSYLSWFQQKPGKSPKTLIYRANRLLDGVPSRFSGSGSGQDYSLTISSLEYEDMGIYYCLQYDEFPYTFGGGTKLEIK | 32.8 |  |  |
| 409D4E10 mouse-human chimeric antibody (antibody, V domains shown, also called mAb112-409D4E10) VH: QVQLQQSGAELVRPGASVTLSCKASGNTFTDYEMHWVKQTPVHGLEWIGATDPETDNTAYNQKFKGKAILTTDKSSSTAYMELRSLTSEDSAVYYCITSGWNDWGQGTSLTVSS VL: DIKMTQSPSSMYASLGERVTITCKASQDINSYLSWFQQKPGKSPKTLIYRANRLLDGVPSRFSGSGSGQDYSLTISSLEYEDMGIYYCLQYNEFPYTFGGGTKLEIK | 25.8 |  |  |
| 556F6B8 mouse-human chimeric antibody (antibody, V domains shown, also called mAb123-556F6B8; 556F8B8) VH: RVQLKQSGPGLVQPSQSLSITCTVSGFSLIKYGVHWVRQSPGEGLEWLGVIWRGGITDYNAAFMSRLSITKDNSKSQVFFKMNSLQADDTAIYYCAKWDGPLAMDYWGQGTSVTVSS VL: DIVMTQSHKFLSTSVGDRVSITCKASQDVGTTVAWYQQKPGQSPKLLIYWASTRHTGVPDRFTGSGSGTDFTLTISNVQSEDLADYFCQQYSSYPYTFGGGTKLEIK | 19.2 |  |  |
| 556F6B8 (LAG-3 mouse-human chimeric antibody) (antibody, V domains shown, also called 556F8B8) VH: RVQLKQSGPGLVQPSQSLSITCTVSGFSLIKYGVHWVRQSPGEGLEWLGVIWRGGITDYNAAFMSRLSITKDNSKSQVFFKMNSLQADDTAIYYCAKWDGPLAMDYWGQGTSVTVSS VL: DIVMTQSHKFLSTSVGDRVSITCKASQDVGTTVAWYQQKPGQSPKLLIYWASTRHTGVPDRFTGSGSGTDFTLTISNVQSEDLADYFCQQYSSYPYTFGGGTKLEIK |  | 0.17 OD450 | 3.72 OD450 |
